Test results taken from the supplement of paper PMC11780869.

System: Bacillus subtilis
Assay: cleaved RNA product abundance (RNA/gDNA barcode ratio) relative to median wild-type variant (ratio to wild type); higher = more accumulation of the downstream cleavage product
Details: cleavage site: cggR-gapA (positions -7 to +36 mutated)
How it was run: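 Reporter mRNAs (truncated aprE or tetM) carrying barcoded, mutagenized RNase Y cleavage-site windows were made from oligos with a 9% error rate and integrated into the B. subtilis chromosome. Cultures grew in LB at 37°C from OD600 0.0003 to 0.3. Cleaved RNA was gel-selected, reverse transcribed and barcode-sequenced alongside genomic DNA barcodes, with UMI collapsing. Cleaved product abundance is the RNA:gDNA barcode ratio per variant, scaled to the median wild-type variant.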

[1] = experiment (reporter, strain, medium): exp 4a: truncated aprE reporter, strain BJT201 with 2% xylose (RNase J1 expressed)
[2] = experiment (reporter, strain, medium): exp 2b: truncated aprE reporter, strain BJT200
[3] = experiment (reporter, strain, medium): exp 6: tetM reporter, strain 168

Sequence | cleaved RNA product abundance [1] | cleaved RNA product abundance [2] | cleaved RNA product abundance [3]
ACAGACGAAGGAGCCGCAAAGAAGTTATTAAGGGATGCATAATCCCTCAATAAAAATATCTCTCACTTATTTAAA | 0.139 | – | –
ACAGACGAAGGAGCCGCAAAGAAGTTATTAAGGGATGCATAATCCCTCAATATAAACATCTCTCACTTATTTAAA | 0.545 | – | –
ACAGACGAAGGAGCCGCAAAGAAGTTATTAAGGGATGCATAATCCCTCAATATAAATAGCTCTCACTTATTTAAA | 0.45 | – | –
ACAGACGAAGGAGCCGCAAAGAAGTTATTAAGGGATGCATAATCCCTCAATATAAATATCTCTCACTTATTTAAA | 0.844 | 0.856 | 1.15
ACAGACGAAGGAGCCGCAAAGAAGTTATTAAGGGATGCATAATCCCTCAATTTAAATATCTCTCACTTATTTAAA | – | 0.177 | –
ACAGACGAAGGAGCCGCAAAGAAGTTATTAAGGGATGCATAATCCCTCACTATAAATATCTCTCACTTATTTAAA | 0.233 | – | –
ACAGACGAAGGAGCCGCAAAGAAGTTATTAAGGGATGCATAATCTCTCAATATAAATATCTCTCACTTATTTAAA | 0.725 | – | –
ACAGACGAAGGAGCCGCAAAGAAGTTATTAAGGGATGCATAATTCCTCAATATAAATATCTCTCACTTATTTAAA | 0.559 | – | –
ACAGACGAAGGAGCCGCAAAGAAGTTATTAAGGGATGCATCATCCCTCAATATAAATATCTCTCACTTATTTAAA | 0.307 | – | –
ACAGACGAAGGAGCCGCAAAGAAGTTATTAAGGGATGCGTAATCCCTCAATATAAATATCTCTCACTTATTTAAA | 0.629 | – | –
ACAGACGAAGGAGCCGCAAAGAAGTTATTAAGGGATGGATAATACCTCAATATAAATATCTCTCACTTATTTAAA | 0.103 | – | –
ACAGACGAAGGAGCCGCAAAGAAGTTATTAAGGGATGGATAATCCATCAATATAAATATCTCTCACTTATTTAAA | 0.189 | – | –
ACAGACGAAGGAGCCGCAAAGAAGTTATTAAGGGATGGATAATCCCTAAATATAAATATCTCTCACTTATTTAAA | 0.553 | – | –
ACAGACGAAGGAGCCGCAAAGAAGTTATTAAGGGATGGATAATCCCTCAATATAAAAATCTCTCACTTATTTAAA | 0.356 | – | –
ACAGACGAAGGAGCCGCAAAGAAGTTATTAAGGGATGGATAATCCCTCAATATAAATATCTCTCACTTATTTAAA | 0.884 | 0.623 | 0.969
ACAGACGAAGGAGCCGCAAAGAAGTTATTAAGGGATGGATAATCCCTCGATATAAATATCTCTCACTTATTTAAA | 0.235 | – | –
ACAGACGAAGGAGCCGCAAAGAAGTTATTAAGGGATGGATAATCCGTCAATATAAATATCTCTCACTTATTTAAA | 0.149 | – | –
ACAGACGAAGGAGCCGCAAAGAAGTTATTAAGGGATGGATAATTCCTCAATATAAATATCTCTCACTTATTTAAA | 0.58 | – | –
ACAGACGAAGGAGCCGCAAAGAAGTTATTAAGGGATGGATACTCCCTCAATATAAATATCTCTCACTTATTTAAA | – | 0.263 | –
ACAGACGAAGGAGCCGCAAAGAAGTTATTAAGGGATGTAAAATCCCTCAATATAAATATCTCTCACTTATTTAAA | 1.04 | – | –
ACAGACGAAGGAGCCGCAAAGAAGTTATTAAGGGATGTAGAATCCCTCAATATAAATATCTCTCACTTATTTAAA | 0.768 | – | –
ACAGACGAAGGAGCCGCAAAGAAGTTATTAAGGGATGTATAAACCCTCAATATAAATATCTCTCACTTATTTAAA | 0.592 | 0.448 | –
ACAGACGAAGGAGCCGCAAAGAAGTTATTAAGGGATGTATAATACCTCAATATAAATATCTCTCACTTATTTAAA | 0.103 | 0.139 | –

Sequence | cleaved RNA product abundance [1] | cleaved RNA product abundance [2] | cleaved RNA product abundance [3]
ACAGACGAAGGAGCCGCAAAGAAGTTATTAAGGGATGTATAATCCATCAATATAAATATCTCTCACTTATTTAAA | 0.238 | 0.175 | –
ACAGACGAAGGAGCCGCAAAGAAGTTATTAAGGGATGTATAATCCCACAATATAAATATCTCTCACTTATTTAAA | 0.308 | – | –
ACAGACGAAGGAGCCGCAAAGAAGTTATTAAGGGATGTATAATCCCCCAATATAAATATCTCTCACTTATTTAAA | – | 0.205 | –
ACAGACGAAGGAGCCGCAAAGAAGTTATTAAGGGATGTATAATCCCTAAATATAAATATCTCTCACTTATTTAAA | 0.748 | 0.551 | –
ACAGACGAAGGAGCCGCAAAGAAGTTATTAAGGGATGTATAATCCCTCAAAATAAATATCTCTCACTTATTTAAA | 0.344 | 0.267 | –
ACAGACGAAGGAGCCGCAAAGAAGTTATTAAGGGATGTATAATCCCTCAATATAAAAATCTCTCACTTATTTAAA | 0.439 | – | –
ACAGACGAAGGAGCCGCAAAGAAGTTATTAAGGGATGTATAATCCCTCAATATAAATATCTCTCACTTATTTAAA | 0.978 | 0.943 | 0.798
ACAGACGAAGGAGCCGCAAAGAAGTTATTAAGGGATGTATAATCCCTCAATATAAATCTCTCTCACTTATTTAAA | 0.82 | – | –
ACAGACGAAGGAGCCGCAAAGAAGTTATTAAGGGATGTATAATCCCTCAATATATATATCTCTCACTTATTTAAA | – | 0.631 | –
ACAGACGAAGGAGCCGCAAAGAAGTTATTAAGGGATGTATAATCCCTCAATTTAAATATCTCTCACTTATTTAAA | 0.146 | 0.218 | –
ACAGACGAAGGAGCCGCAAAGAAGTTATTAAGGGATGTATAATCCCTCAGTATAAATATCTCTCACTTATTTAAA | 0.237 | 0.218 | –
ACAGACGAAGGAGCCGCAAAGAAGTTATTAAGGGATGTATAATCCCTCATTATAAATATCTCTCACTTATTTAAA | 0.387 | – | –
ACAGACGAAGGAGCCGCAAAGAAGTTATTAAGGGATGTATAATCCCTCCATATAAATATCTCTCACTTATTTAAA | – | 0.162 | –
ACAGACGAAGGAGCCGCAAAGAAGTTATTAAGGGATGTATAATCCCTGAATATAAATATCTCTCACTTATTTAAA | 0.461 | – | –
ACAGACGAAGGAGCCGCAAAGAAGTTATTAAGGGATGTATAATCCCTTAATATAAATATCTCTCACTTATTTAAA | 0.445 | – | –
ACAGACGAAGGAGCCGCAAAGAAGTTATTAAGGGATGTATAATCCGTCAATATAAATATCTCTCACTTATTTAAA | 0.187 | – | –
ACAGACGAAGGAGCCGCAAAGAAGTTATTAAGGGATGTATAATCCTTCAATATAAATATCTCTCACTTATTTAAA | 0.922 | – | –
ACAGACGAAGGAGCCGCAAAGAAGTTATTAAGGGATGTATAATCGCTCAATATAAATATCTCTCACTTATTTAAA | 0.173 | – | –
ACAGACGAAGGAGCCGCAAAGAAGTTATTAAGGGATGTATAATCTCTCAATATAAATATCTCTCACTTATTTAAA | 0.513 | 0.708 | –
ACAGACGAAGGAGCCGCAAAGAAGTTATTAAGGGATGTATAATTCCTCAATATAAATATCTCTCACTTATTTAAA | 0.576 | – | –
ACAGACGAAGGAGCCGCAAAGAAGTTATTAAGGGATGTATATTCCCTCAATATAAATATCTCTCACTTATTTAAA | 0.88 | – | –
ACAGACGAAGGAGCCGCAAAGAAGTTATTAAGGGATGTGTAATCCCTCAATATAAATATCTCTCACTTATTTAAA | 0.526 | – | –
ACAGACGAAGGAGCCGCAAAGAAGTTATTAAGGGATTAAAAATCCCTCAATATAAATATCTCTCACTTATTTAAA | 0.629 | 0.941 | –
